# Results published in US20210355220A1 (TIKCRO TECHNOLOGIES, published 2021).
# B1: Ab55h (antibody, V domains shown)
# VH: QVQLQESGPGLVKPSETLSLTCAVSGYSISGDYYWGWIRQPPGKGLEWIGSIYHSGYTYYNPSLKSRVTISVDTSKNQFSLKLSSVTAADTAVYYCARDSGWYVIAFDYWGQGTLVTVSS
# VL: EIVMTQSPATLSVSPGERATLSCRASQSVSSNLAWYQEKPGQAPRLLIYGASTRATGIPARFSGSGSGTEFTLTISSLQSEDFAVYYCQQYNNWPPLTFGGGTKVEIK
# notes: Human form, compared with an hIgG1 isotype control
# Experiments:
# [1] = target: non-recycling version of CTLA-4 on CTLA-4 effector cells (Promega CS186920) (human, UniProt P16410 36-223); experiment: cell-based or functional assay
# [2] = target: T1, Recombinant human CTLA-4-his (Sino Biologicals, 11159-H08H) (human, UniProt P16410 36-162); experiment: SPR (Biacore T100), reference ipilimumab
# T1 construct: Bought protein; also called dimer hCTLA-4; not shown: his tag
# Description: (§1) Recombinant human CTLA-4-his (Sino Biologicals, 11159-H08H) was added in a serial 2-fold dilution, starting at a concentration of 500nM. […] The measurement was corrected using the baseline channel and the protein-antibody interaction was measured by the change in surface resonance and quantified with Biacore T100 control software (version 2.0.4).
# [3] = target: T2, human CTLA-4 expressed on cells (human, UniProt P16410 36-223); experiment: flow cytometry on HEK293-hCTLA-4 cells, reference tremelimumab
# T2 construct: whole, on cells; On stably or transiently transfected HEK293 cells; also called hCTLA-4; HEK293-hCTLA-4 cells
# Description: To test the binding of antibodies to CTLA-4 under more physiological conditions, the binding of CTLA-4 antibodies to cell-surface CTLA-4 was tested. […] The surface expression of hCTLA-4 in the obtained cell line was tested using a commercial anti-CTLA-4 antibody and compared to the parent cell line (HEK293 without transfection). […] The anti-CTLA-4 antibodies were incubated in serial dilution concentrations with the HEK293-hCTLA-4 cells for 1 hour on ice. Following a wash step, an anti-human antibody conjugated to ALEXA FLUOR® 647® was added for an additional hour. The cells were washed, and propidium iodide (PI) was added to exclude dead cells. The fluorescent signal was measured using FACS and analyzed. Dead cells were removed based on the PI signal. The population was gated based on forward and side scatter (FSC and SSC) parameters, and doublets were removed. The Median Fluorescent Intensity (MFI) of the appropriate channel was calculated for the live single cells from each group. The MFI was plotted versus antibody concentration in Prism software (V6.01) and kinetic parameters were obtained using a curve fit dose response function with four parameters. […] The lower EC₅₀ values indicate increased binding affinity to cell surface hCTLA-4.
# [4] = target: T3, Pig (Sus scrofa) CTLA-4 on HEK293 cells (Sus scrofa, UniProt Q9MYX7 36-223); experiment: flow cytometry on HEK293 cells transiently expressing pig CTLA-4
# T3 construct: whole, on cells; also called pig CTLA-4
# Description: (§2) Macaque (Macaca fascicularis), pig (Sus scrofa) and mouse (Mus musculus) CTLA-4 proteins were transiently expressed on the surface of HEK293 cells. […] Binding was measured using FACS and analyzed.
# [5] = target: T4, Mouse (Mus musculus) CTLA-4 on HEK293 cells (Mus musculus, UniProt P09793 36-223); experiment: flow cytometry on HEK293 cells transiently expressing mouse CTLA-4
# T4 construct: whole, on cells; also called mouse CTLA-4
# Description: as §2
# [6] = target: T2, human CTLA-4 expressed on cells; experiment: flow cytometry, inhibition of CD80-mFC binding to HEK293-hCTLA-4 cells
# Description: (§3) As part of their activity, CTLA-4 therapeutic antibodies block the interaction between CTLA-4 and its ligands, leaving the ligands free for CD28 binding. […] First, HEK293-hCTLA-4 cells were incubated with the tested antibodies in a serial dilution for 30 minutes. […] The fluorescence was measured and analyzed. The experiment was performed in triplicate and is representative of three biological repeats.
# [7] = target: T2, human CTLA-4 expressed on cells; experiment: flow cytometry, inhibition of CD86-mFC binding to HEK293-hCTLA-4 cells
# Description: as §3
# [8] = target: T1, Recombinant human CTLA-4-his (Sino …); experiment: SPR (Biacore T100), antibody captured on anti-human chip, CTLA-4-his in solution
# Description: as §1
# [9] = target: T4, Mouse (Mus musculus) CTLA-4 on HEK293 …; experiment: flow cytometry on HEK293 cells transiently expressing mouse CTLA-4, reference ipilimumab
# Description: as §2
# [10] = target: T4, Mouse (Mus musculus) CTLA-4 on HEK293 …; experiment: flow cytometry on HEK293 cells transiently expressing mouse CTLA-4, reference tremelimumab
# Description: as §2
# [11] = target: T5, Macaque (Macaca fascicularis) CTLA-4 on HEK293 cells (Macaca fascicularis, UniProt G7PL88 36-223); experiment: flow cytometry on HEK293 cells transiently expressing macaque CTLA-4, reference tremelimumab
# T5 construct: whole, on cells; also called macaque CTLA-4
# Description: as §2
# [12] = target: T2, human CTLA-4 expressed on cells; experiment: flow cytometry, inhibition of CD80-mFC binding to HEK293-hCTLA-4 cells, reference tremelimumab
# Description: as §3
# [13] = target: T2, human CTLA-4 expressed on cells; experiment: flow cytometry, inhibition of CD86-mFC binding to HEK293-hCTLA-4 cells, reference tremelimumab
# Description: as §3
# [14] = target: T1, Recombinant human CTLA-4-his (Sino …); experiment: ELISA, plate coated with non-reduced CTLA-4-his (dimer), anti-human-HRP, OD450; the box beside the curves does not name the quantity, the value lies at the half-maximal point of the curve (OD450 0.2 to 1.4)
# Description: hCTLA-4 can exist in monomer and dimer forms on the cell surface. […] The recombinant protein was incubated for 10 minutes with 100 mM DTT to reduce the protein to its monomeric form. […] The plates were coated overnight at 4° C., followed by a wash step and blocking with 20% milk for 1 hour at 37° C. […] The plate was washed and a secondary anti-human-HRP antibody (Jackson) was added at a 1:5000 dilution. A TMB solution was added, followed by stop solution and the OD at 450 nm was measured. Data was analyzed with Prism software.
# T1 sequence (P16410 36-162 limits assumed): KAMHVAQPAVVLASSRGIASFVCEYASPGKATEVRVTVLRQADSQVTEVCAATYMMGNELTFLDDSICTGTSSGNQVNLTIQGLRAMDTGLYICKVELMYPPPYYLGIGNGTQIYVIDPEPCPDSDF
# T2 sequence (P16410 36-223): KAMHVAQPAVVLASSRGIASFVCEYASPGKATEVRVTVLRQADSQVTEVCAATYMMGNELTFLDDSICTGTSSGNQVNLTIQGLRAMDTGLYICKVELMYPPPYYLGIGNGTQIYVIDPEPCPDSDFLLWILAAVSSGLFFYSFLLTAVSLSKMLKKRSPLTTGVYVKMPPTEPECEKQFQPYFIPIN
# Sequence of non-recycling version of CTLA-4 on CTLA-4 effector cells (Promega CS186920) (P16410 36-223): as above
# T5 sequence (G7PL88 entry or part of it): as the sequence (P16410 36-223) above, with S14N, I18T, L106M counted along it
# T3 sequence (Q9MYX7 36-223): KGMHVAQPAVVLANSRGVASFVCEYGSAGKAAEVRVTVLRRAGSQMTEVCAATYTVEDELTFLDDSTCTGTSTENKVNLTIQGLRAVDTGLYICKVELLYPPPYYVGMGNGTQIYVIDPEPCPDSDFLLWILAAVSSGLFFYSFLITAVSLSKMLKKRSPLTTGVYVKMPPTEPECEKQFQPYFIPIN
binder,measurement,setting,value
B1,NFAT reporter EC50,[1],0.63 nM
same,"NFAT reporter EC50, Ratio Ipilimumab:Ab55h",[1],3.65 fold
same,Ratio Ipilimumab:Ab55h of Kd,[2],8.1 fold
same,Ratio Ipilimumab:Ab55h of Koff,[2],1.3 fold
same,Ratio Ipilimumab:Ab55h of Kon,[2],0.16 fold
same,Ratio Tremelimumab:Ab55h of EC50,[3],7.5 fold
same,EC50,[4],0.12 nM
same,EC50,[5],34 nM
same,IC50,[6],1.6 nM
same,IC50,[7],1.5 nM
same,Kd,[8],0.86 nM
same,koff,[8],0.0006 s⁻¹
same,Ratio Ipilimumab:Ab55h of EC50,[9],0.18 fold
same,Ratio Tremelimumab:Ab55h of EC50,[10],3 fold
same,Ratio Tremelimumab:Ab55h of EC50,[11],1.7 fold
same,Ratio Tremelimumab:Ab55h of IC50,[12],1.6 fold
same,Ratio Tremelimumab:Ab55h of IC50,[13],2.8 fold
same,EC50,[14],8 pM
